In paper PMC5137447:
pKd: −log10 of the molar value.

Legend:
[1] = target: T1, influenza A virus RNA polymerase (RNAP; PB1-PB2-PA) (Influenza A virus A/NorthernTerritories/60/68 (H3N2)) (UniProt Q910D6+Q91MB1+P03433); experiment: smFRET titration
[2] = target: T1, influenza A virus RNA polymerase (RNAP; PB1-PB2-PA) (Influenza A virus A/NorthernTerritories/60/68 (H3N2)); experiment: fluorescence anisotropy

Work on “AGCGAAAGCAGGAGUUU / UAAACUCCUUGUUUCUACU [cRNA promoter 5U17/3U4]” yielded a pKd [1] of 7.89.
In the case of AGCGAAAGCAGGAGUUU [5' cRNA], the pKd [2] was 7.36.
In the case of UAAACUCCUUGUUUCUACU [3' cRNA], the pKd [2] was less than 6.00.
